# Earlier results, collected in PMC5805400.
# Read-outs that look alike come from different tables or passages of the source.
# How the values were obtained:
# [1] = target: CYP2B4 (Oryctolagus cuniculus) (UniProt P00178)
# [2] = target: CYP2B4 (Oryctolagus cuniculus) (UniProt P00178); remark: listed apart in the source
# CYP2J2 (Homo sapiens) = CYP2J2 (Homo sapiens) (UniProt P51589); test: spin shift
# [3] = target: ICP47 (Human alphaherpesvirus 1) (UniProt P03170)
# [4] = target: ICP47 (Human alphaherpesvirus 1) (UniProt P03170); remark: listed apart in the source
# Sequence of UniProt P03170 (P03170 whole entry): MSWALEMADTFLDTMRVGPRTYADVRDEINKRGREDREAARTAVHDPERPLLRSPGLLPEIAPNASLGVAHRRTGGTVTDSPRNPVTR
# Sequence of UniProt P00178 (P00178 whole entry): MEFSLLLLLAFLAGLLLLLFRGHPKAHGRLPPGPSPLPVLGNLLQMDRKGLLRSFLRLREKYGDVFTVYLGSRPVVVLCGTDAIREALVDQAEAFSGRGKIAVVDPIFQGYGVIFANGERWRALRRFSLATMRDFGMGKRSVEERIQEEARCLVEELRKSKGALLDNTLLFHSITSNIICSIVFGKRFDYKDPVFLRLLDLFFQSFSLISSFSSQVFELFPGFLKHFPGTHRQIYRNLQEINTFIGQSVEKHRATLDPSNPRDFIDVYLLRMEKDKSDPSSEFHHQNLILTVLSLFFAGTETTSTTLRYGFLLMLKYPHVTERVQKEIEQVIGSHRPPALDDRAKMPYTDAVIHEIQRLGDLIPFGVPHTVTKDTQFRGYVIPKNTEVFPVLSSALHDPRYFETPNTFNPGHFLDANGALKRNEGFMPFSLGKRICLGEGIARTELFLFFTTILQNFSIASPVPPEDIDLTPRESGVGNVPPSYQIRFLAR
# Sequence of UniProt P51589 (P51589 whole entry): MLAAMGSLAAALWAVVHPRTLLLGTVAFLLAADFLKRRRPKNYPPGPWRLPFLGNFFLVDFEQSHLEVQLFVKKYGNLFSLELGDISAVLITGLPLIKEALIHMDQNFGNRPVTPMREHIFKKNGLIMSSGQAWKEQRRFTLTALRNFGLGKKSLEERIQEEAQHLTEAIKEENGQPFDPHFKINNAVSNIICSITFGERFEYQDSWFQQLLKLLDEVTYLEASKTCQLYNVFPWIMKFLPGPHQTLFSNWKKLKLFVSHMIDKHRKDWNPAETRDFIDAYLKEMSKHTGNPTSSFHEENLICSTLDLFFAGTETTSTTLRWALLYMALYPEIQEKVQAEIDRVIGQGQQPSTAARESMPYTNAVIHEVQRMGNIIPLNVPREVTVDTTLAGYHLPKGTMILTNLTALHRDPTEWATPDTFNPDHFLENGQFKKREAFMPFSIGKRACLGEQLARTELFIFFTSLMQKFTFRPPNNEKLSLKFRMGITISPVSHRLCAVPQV
substance,measurement,setting,value
Cytochrome b5 (from UniProt P00169),Kd,[1],8 nM
same,Kd,[2],140 nM
CPR (from UniProt P16435),Kd,CYP2J2 (Homo sapiens),120 nM
TAP (from UniProt Q03518),Ki,[3],210 nM
same,Ki,[4],280 nM
